Where two headings read alike, the source gives them in different places.

In US20250179187A1, “ANTI PD-L2 ANTIBODY” (REJUVERON SENESCENCE THERAPEUTICS AG, priority 2022, published 2025) one finds EC50 (PD-1/PD-L2 blockade reporter assay, luminescence) and EC50 data, which are given here for three substances.

Experiment [1] deals with human PD-L2 on CHO-K1 cells of the Promega PD-1/PD-L2 blockade bioassay (human) (UniProt Q9BQ51).
Experiment [2] deals with human PD-L2 on CHO-K1 cells over-expressing hPDL2-GFP (human) (UniProt Q9BQ51). In words: flow cytometry on CHO-K1 cells expressing hPD-L2, median fluorescence.
Chain of human PD-L2 on CHO-K1 cells over-expressing hPDL2-GFP (human) (Q9BQ51 20-273): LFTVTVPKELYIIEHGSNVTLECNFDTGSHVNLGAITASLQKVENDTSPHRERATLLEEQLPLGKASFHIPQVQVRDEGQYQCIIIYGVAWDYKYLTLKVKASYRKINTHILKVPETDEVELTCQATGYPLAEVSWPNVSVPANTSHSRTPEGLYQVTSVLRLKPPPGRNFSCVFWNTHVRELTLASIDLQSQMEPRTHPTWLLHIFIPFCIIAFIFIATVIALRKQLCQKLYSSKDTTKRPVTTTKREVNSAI
Experiment [3] has the same target. In words: binding to cellular PDL2 (FIG. 1A by the text; flow cytometry on CHO-K1 cells expressing hPD-L2).
The target is the same in experiment [4]. In words: flow cytometry blocking assay: antibody titrated against recombinant hPD-1 (constant 15 micrograms/mL) binding to CHO-K1 cells expressing hPD-L2; signal falls with the antibody; column head on the sheet is EC50.
The target of experiment [5] is human PD-L2 on CHO-K1 cells of the Promega PD-1/PD-L2 blockade bioassay (human) (UniProt Q9BQ51). The source holds these as a separate data set.
Experiment [6] concerns the target mouse PD-L2 on CHO-K1 cells over-expressing mPD-L2 GFP (mouse) (UniProt Q9WUL5). In words: flow cytometry on CHO-K1 cells overexpressing mPD-L2, mean fluorescence.

Chain of human PD-L2 on CHO-K1 cells of the Promega PD-1/PD-L2 blockade bioassay (human) (Q9BQ51 20-273): as above
Chain of mouse PD-L2 on CHO-K1 cells over-expressing mPD-L2 GFP (mouse) (Q9WUL5 20-247): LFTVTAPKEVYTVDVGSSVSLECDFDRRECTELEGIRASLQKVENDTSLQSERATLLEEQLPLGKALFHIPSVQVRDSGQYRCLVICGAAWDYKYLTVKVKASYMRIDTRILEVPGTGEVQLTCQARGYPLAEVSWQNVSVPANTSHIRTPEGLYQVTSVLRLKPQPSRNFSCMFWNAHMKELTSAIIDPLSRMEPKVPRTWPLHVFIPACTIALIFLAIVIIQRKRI

The substance “24F.10C12 (commercially available anti-PD-L2 monoclonal antibody)” showed an EC50 (PD-1/PD-L2 blockade reporter assay, luminescence) in experiment [1] of 1.78 nM. Besides, the results for the EC50 in experiment [2], in experiment [3] and in experiment [4] were 1.18 nM, 0.7 nM and 1.14 nM, respectively.

For the substance “MIH-18 (commercially available anti-PD-L2 monoclonal antibody)”, the EC50 (PD-1/PD-L2 blockade reporter assay, luminescence) in experiment [5] worked out at 1.32 nM; in experiment [1], 1.71 nM. Further, the EC50 in experiment [2] stood at 1.65 nM; in experiment [3], 0.618 nM; in experiment [4], 2.99 nM.

In experiment [6], TY25 (antibody) registered an EC50 of 0.64 nM.
